Data published in patent US20250026850A1 (TRISHULA THERAPEUTICS, published 2025).
Substitutions are numbered along the chain they refer to.

T1: cynomolgus macaque (Macaca fascicularis) CD39 on cells (cynomolgus macaque (Macaca fascicularis), UniProt P49961 7-510 (human entry))
T1 construct: CHO cells engineered to express cyno CD39, or primary cyno B cells and monocytes; also called cyno CD39; cCD39
T1 chain: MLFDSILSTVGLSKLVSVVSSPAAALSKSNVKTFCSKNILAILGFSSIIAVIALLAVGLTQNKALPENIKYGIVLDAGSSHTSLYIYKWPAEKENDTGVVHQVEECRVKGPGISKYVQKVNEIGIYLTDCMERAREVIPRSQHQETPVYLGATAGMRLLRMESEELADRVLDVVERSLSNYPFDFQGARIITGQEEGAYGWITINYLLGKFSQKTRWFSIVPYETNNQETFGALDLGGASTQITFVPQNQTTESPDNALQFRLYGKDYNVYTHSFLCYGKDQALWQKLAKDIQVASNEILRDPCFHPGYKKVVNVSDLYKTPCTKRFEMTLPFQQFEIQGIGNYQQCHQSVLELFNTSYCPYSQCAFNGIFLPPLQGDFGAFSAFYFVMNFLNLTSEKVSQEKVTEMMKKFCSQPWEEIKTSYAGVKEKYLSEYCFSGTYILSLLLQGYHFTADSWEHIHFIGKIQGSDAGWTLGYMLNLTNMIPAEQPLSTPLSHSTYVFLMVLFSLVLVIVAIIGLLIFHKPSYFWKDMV

T2: human CD39 on cells (human, UniProt P49961 1-510)
T2 construct: One molecule for all cells that carry human CD39; the cell is named under assay; also called hCD39; cellular CD39
T2 sequence: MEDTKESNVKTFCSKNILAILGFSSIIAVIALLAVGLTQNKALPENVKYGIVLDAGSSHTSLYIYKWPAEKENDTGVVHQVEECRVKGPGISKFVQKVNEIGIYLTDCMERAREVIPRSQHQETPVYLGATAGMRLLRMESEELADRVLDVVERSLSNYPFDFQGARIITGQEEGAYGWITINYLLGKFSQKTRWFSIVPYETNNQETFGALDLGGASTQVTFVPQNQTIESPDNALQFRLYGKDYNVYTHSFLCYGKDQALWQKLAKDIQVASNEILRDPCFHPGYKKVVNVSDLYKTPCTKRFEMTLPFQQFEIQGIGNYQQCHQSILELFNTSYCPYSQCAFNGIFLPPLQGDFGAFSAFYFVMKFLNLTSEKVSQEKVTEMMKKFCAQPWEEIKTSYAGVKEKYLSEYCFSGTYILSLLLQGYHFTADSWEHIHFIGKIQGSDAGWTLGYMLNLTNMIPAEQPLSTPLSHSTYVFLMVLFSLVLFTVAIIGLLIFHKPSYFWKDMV

T3: rhCD39-ECD-His (R&D Systems) (human, UniProt P49961 38-478)
T3 construct: Bought protein; that entry runs on through the C-terminal transmembrane and cytoplasmic residues; also called recombinant human CD39 extracellular domain; soluble recombinant human CD39 (ENTDP1) ECD; not shown: His tag
T3 sequence: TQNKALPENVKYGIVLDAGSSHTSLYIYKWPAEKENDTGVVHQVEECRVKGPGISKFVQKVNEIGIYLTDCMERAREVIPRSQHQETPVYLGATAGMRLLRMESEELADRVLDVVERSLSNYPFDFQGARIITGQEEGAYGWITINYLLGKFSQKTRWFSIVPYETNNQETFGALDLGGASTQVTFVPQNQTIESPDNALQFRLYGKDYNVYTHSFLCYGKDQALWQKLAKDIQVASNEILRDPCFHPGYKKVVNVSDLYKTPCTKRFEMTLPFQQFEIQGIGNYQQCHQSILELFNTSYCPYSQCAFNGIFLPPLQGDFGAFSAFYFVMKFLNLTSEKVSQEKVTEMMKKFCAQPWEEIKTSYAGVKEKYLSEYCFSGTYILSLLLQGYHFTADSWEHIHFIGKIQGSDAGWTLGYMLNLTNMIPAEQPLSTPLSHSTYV

B1: 31437 (antibody, V domains shown)
VH: QVQLVQSGAEVKKPGASVKVSCKASGGTFQSLAISWVRQAPGQGLEWMGGILPIGGTANYAQKFQGRVTITADESTSTAYMELSSLRSEDTAVYYCARGGAKYAGRYGMDVWGQGTTVTVSS
VL: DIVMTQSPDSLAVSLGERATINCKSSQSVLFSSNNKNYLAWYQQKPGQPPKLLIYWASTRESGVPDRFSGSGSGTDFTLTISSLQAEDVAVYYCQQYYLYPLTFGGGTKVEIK
B2: 31901 (antibody, V domains shown)
VH: QVQLVQSGAEVKKPGSSVKVSCKASGGTFSSLPISWVRQAPGQGLEWMGGIGFGTANYAQKFQGRVTITADESTSTAYMELSSLRSEDTAVYYCARGGAKYAGRYGMDVWGQGTTVTVSS
VL: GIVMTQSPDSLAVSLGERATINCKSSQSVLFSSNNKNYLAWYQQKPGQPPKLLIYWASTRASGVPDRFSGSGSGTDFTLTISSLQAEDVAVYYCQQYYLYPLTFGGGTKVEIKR
B3: 31905 (antibody, V domains shown)
VH: B2 VH with S30P, L32N, P33A, G103R, R104T
VL: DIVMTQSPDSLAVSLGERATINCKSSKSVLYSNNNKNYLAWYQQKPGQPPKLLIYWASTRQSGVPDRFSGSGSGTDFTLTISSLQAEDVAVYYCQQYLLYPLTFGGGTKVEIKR

Experiments:
[1] = target: T1, cynomolgus macaque (Macaca …); test: flow cytometry, 100 nM IgG, cCD39-CHO cells; MFI ratio to parental CHO
human CD39 on cells [2] = target: T2, human CD39 on cells; test: flow cytometry, 100 nM IgG, hCD39-CHO cells; MFI ratio to parental CHO
[3] = target: T3, rhCD39-ECD-His (R&D Systems); test: BLI (Octet), IgG on anti-human Fc sensor, rhCD39-ECD-His 10-300 nM, 1:1 fit
human CD39 on cells [4] = target: T2, human CD39 on cells; test: flow cytometry on 721 cells, anti-human IgG secondary, Prism fit; unit from the x axis
Experimental: (§1) Cells were washed 3 times in FACS buffer (PS, 2% FBS, and 2 mM EDTA) and next incubated with secondary antibody (goat anti-human IgG Southern Biotech) at 1:100 for 30 minutes at 4 degrees C. Cells were washed, resuspended in FACS buffer, and analyzed for binding by flow cytometry analysis on BD Celesta.

human CD39 on cells [5] = target: T2, human CD39 on cells; test: flow cytometry on MEL-28 cells, anti-human IgG secondary, Prism fit; unit from the x axis
Experimental: as §1

human CD39 on cells [6] = target: T2, human CD39 on cells; test: flow cytometry on purified human B cells, anti-human IgG-PE, Prism fit; unit from the x axis
Experimental: (§2) EC50 was calculated using GrapPad Prism software. […] B cells were gated using FlowJo software and ECsos were calculated using GraphPad Prism.
(§3) B cells were isolated from human donor leukopak using EasySep B cell isolation kit ([…] Technologies). Cyno monocytes were purified from fresh cyno blood using NHP CD14 positive selection kit (Miltenyi) and flow through was collected and stained with CD4, CD8, CD20, CD16, and CD3 antibodies (BD). […] Cell were washed 3 times in FACS buffer (PS, 2% FBS, and 2 mM EDTA) and incubated with secondary antibody (mouse anti-human IgG southern biotech) at 1:100 for 30 minutes at 4 degrees C. Cells were washed 2 times in FACS buffer and resuspended in FACS buffer and analyzed on BD Celesta.

[7] = target: T1, cynomolgus macaque (Macaca …); test: flow cytometry on cyno PBMC, gated B cells, anti-human IgG PE, Prism fit; unit from the x axis
Experimental: as §2, §3

human CD39 on cells [8] = target: T2, human CD39 on cells; test: flow cytometry on purified human CD4+CD25+CD127dim Treg cells, anti-human IgG secondary, Prism fit; unit from the x axis
Experimental: Treg cells were isolated from human donor leukopak using CD4⁺CD25⁺CD127^dim regulatory T cell isolation kit II (Miltenyi). […] Cell were washed 3 times in FACS buffer (PS, 2% FBS, and 2 mM EDTA) and incubated with secondary antibody (mouse anti-human IgG southern biotech) at 1:100 for 30 minutes at 4 degrees C. Cells were washed 2 times in FACS buffer, resuspended in FACS buffer and analyzed on BD Fortessa.

Row | Binder | Cell Binding (FOB) [1] [FOB] | Cell Binding (FOB) (human CD39 on cells [2]) | Kd [3] [nM] | koff [3] [s⁻¹] | kon [3] [M⁻¹ s⁻¹] | EC50 (human CD39 on cells [4]) [µg/mL] | EC50 (human CD39 on cells [5]) [µg/mL] | EC50 (human CD39 on cells [6]) [µg/mL] | EC50 [7] [µg/mL] | EC50 (human CD39 on cells [8]) [nM]
1 | B1 | 3640 | 1290 | 0.558 | 0.000213 | 382000 | 7.46 | 0.368 | 0.109 | 0.108 | 
2 | B2 | 4660 | 1110 | 0.128 | 0.000132 | 1.03e+06 | 0.851 | 0.102 | 0.0438 | 0.124 | 0.519
3 | B3 | 4940 | 1080 | 0.0731 | 0.000111 | 1.52e+06 | 2.63 | 0.159 | 0.0805 | 0.124 | 0.735
